Laboratory results from patent publication US20050089871.

Target: D1 receptor of human renal proximal tubule cells (UniProt P21728)
Sequence (P21728 whole entry): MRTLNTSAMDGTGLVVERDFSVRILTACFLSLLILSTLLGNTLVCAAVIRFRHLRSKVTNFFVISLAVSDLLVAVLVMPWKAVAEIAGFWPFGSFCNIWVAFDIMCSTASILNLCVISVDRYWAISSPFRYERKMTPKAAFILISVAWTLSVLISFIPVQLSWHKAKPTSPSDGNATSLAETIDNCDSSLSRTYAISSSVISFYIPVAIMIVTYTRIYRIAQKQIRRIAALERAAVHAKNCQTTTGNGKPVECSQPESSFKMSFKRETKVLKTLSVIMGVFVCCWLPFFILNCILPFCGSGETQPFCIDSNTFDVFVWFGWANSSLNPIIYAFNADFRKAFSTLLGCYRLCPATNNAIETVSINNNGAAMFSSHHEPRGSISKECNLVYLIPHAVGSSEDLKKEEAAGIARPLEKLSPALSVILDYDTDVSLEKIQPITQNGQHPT

GRK4 of human renal proximal tubule cells
serine phosphorylation of the D1 receptor (immunoprecipitation with anti D1 receptor antibody, anti-phosphoserine immunoblot) after GRK4 antisense treatment: GRK4 antisense treatment almost completely abolished the phosphorylation of the D1 receptor in fenoldopam-treated renal proximal tubule cells from hypertensive subjects to levels that are lower than basal values
